The target in assay [1] is T1, domain V of β2GPI (β2GPI-DV) (Homo sapiens, UniProt P02749).
T1 construct: Domain V of β2GPI (residues 244-326), was subcloned into a pET15b vector (Novagen); histidine tag followed by TEV protease site (N, cleaved yes); made in house
T1 sequence (P02749 263-345): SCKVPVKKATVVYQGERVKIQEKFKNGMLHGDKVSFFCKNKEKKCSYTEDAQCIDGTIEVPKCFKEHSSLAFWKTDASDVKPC
The experiment in a line: Inhibition of binding of isolated domain V of β2GPI to cardiolipin in the absence of antibodies. The note with it: in the absence of dimerization antibodies, read-out: concentration at half-maximal inhibition of binding of domain V to cardiolipin. On the procedure:
(§1) Cardiolipin-coated 96 well plates available as part of the ImmunoWELL cardiolipin IgG test kit (GenBio) were blocked with 0.5% of skim milk and 2% BSA in 20 mM Tris, 100 mM NaCl, 2 mM CaCl2, pH 7.4. The assay buffer contained 20 mM Tris, 100 mM NaCl, 2 mM CaCl2, pH 7.4 with 2% BSA and the wash buffer was 20 mM Tris, 100 mM NaCl, 2 mM CaCl2, pH 7.4. When the purified β2GPI (Haematologic Technologies, Inc.) was used in experiments, 27 mM glycine was added to the assay buffer to account for glycine present in the stock solution of β2GPI. β2GPI bound to cardiolipin was detected with peroxidase-conjugated anti-β2GPI antibodies (Cedarlane, CL20021HP, 2 mg/ml) diluted 1:2500. […] The peroxidase activity of the bound antibodies was detected using 2-2′-azino-di-[3-ethylbenzthizzoline]sulfonate (ABTS) chromogenic reagent by measuring OD at 405 nm. […] The fits of the raw data and the titration data points were then normalized to the maximum binding determined from the fit to facilitate comparison.
(§2) For the inhibition studies, increasing concentrations of A1 or A1-A1 were added to a constant amount of β2GPI (50 nM), normal human serum (1%) or β2GPI-DV (130 nM) and incubated for 1 hour at room temperature. […] Then, samples were incubated on wells for an additional 1 hour and, after washing, the bound β2GPI/anti-β2GPI or β2GPI-DV/anti-tag antibody complexes were detected.

The target in assay [2] is T2, β2GPI in normal human serum (Homo sapiens, UniProt P02749).
T2 construct: pooled normal human serum (Innovative Research); tissue Innovative Research; host or cells: pooled normal human serum
T2 sequence (P02749 20-345): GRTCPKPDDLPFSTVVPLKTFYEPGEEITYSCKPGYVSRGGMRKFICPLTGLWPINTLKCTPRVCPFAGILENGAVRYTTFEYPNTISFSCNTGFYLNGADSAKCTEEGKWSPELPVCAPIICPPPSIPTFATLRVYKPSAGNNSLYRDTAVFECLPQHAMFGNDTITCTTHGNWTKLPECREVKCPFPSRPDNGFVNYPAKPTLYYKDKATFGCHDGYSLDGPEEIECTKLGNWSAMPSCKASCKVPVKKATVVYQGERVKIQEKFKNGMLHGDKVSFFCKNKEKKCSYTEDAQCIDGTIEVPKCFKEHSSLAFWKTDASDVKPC
The assay is described as follows: Inhibition of binding of β2GPI in human serum to cardiolipin in the absence of anti-β2GPI antibodies. The note with it: 1% human serum, read-out: concentration of inhibitor at 50% inhibition of β2GPI in serum binding to cardiolipin. On the procedure: as §1, §2

The target of assay [3] is T3, dimeric β2GPI-DV/anti-tag antibody complexes (Homo sapiens, UniProt P02749).
T3 construct: Domain V of β2GPI (residues 244-326), was subcloned into a pET15b vector (Novagen); histidine tag followed by TEV protease site (N, cleaved yes); made in house
T3 sequence (P02749 263-345): T1 sequence (P02749 263-345)
The assay is described as follows: Inhibition of binding of β2GPI-DV to cardiolipin in the presence of dimerization (anti-tag) antibodies. The note with it: 30 nM β2GPI-DV, read-out: half-maximal inhibition of binding of β2GPI-DV to cardiolipin. On the procedure:
(§3) Cardiolipin-coated 96 well plates available as part of the ImmunoWELL cardiolipin IgG test kit (GenBio) were blocked with 0.5% of skim milk and 2% BSA in 20 mM Tris, 100 mM NaCl, 2 mM CaCl2, pH 7.4. The assay buffer contained 20 mM Tris, 100 mM NaCl, 2 mM CaCl2, pH 7.4 with 2% BSA and the wash buffer was 20 mM Tris, 100 mM NaCl, 2 mM CaCl2, pH 7.4. When the purified β2GPI (Haematologic Technologies, Inc.) was used in experiments, 27 mM glycine was added to the assay buffer to account for glycine present in the stock solution of β2GPI. β2GPI bound to cardiolipin was detected with peroxidase-conjugated anti-β2GPI antibodies (Cedarlane, CL20021HP, 2 mg/ml) diluted 1:2500. To detect β2GPI-DV bound to cardiolipin, we used peroxidase-conjugated anti-HA antibody (Abcam, ab1265, 1 mg/ml) directed to HA epitope tag at the N-terminus of β2GPI-DV diluted 1:2500. The peroxidase activity of the bound antibodies was detected using 2-2′-azino-di-[3-ethylbenzthizzoline]sulfonate (ABTS) chromogenic reagent by measuring OD at 405 nm. […] The fits of the raw data and the titration data points were then normalized to the maximum binding determined from the fit to facilitate comparison.
(§4) […] Then, samples were incubated on wells for an additional 1 hour and, after washing, the bound β2GPI/anti-β2GPI or β2GPI-DV/anti-tag antibody complexes were detected.

Assay [4] addresses T4, β2GPI purified from human plasma (Homo sapiens, UniProt P02749).
T4 construct: We used β2GPI purified from human plasma available from Haematologic Technologies, Inc; purchased Haematologic Technologies, Inc; host or cells: human plasma
T4 sequence (P02749 20-345): T2 sequence (P02749 20-345)
The assay is described as follows: Inhibition of binding of purified β2GPI to cardiolipin in the absence of anti-β2GPI antibodies. The conditions noted are these: in the absence of anti-β2GPI antibodies (FIG. 5). On the procedure:
as §1, §2

Assay [5] has as its target T5, β2GPI/anti-β2GPI antibody complexes (β2GPI purified from human plasma) (Homo sapiens, UniProt P02749).
T5 construct: We used β2GPI purified from human plasma available from Haematologic Technologies, Inc; purchased Haematologic Technologies, Inc; host or cells: human plasma
T5 sequence (P02749 20-345): T2 sequence (P02749 20-345)
The assay is described as follows: Inhibition of binding of purified β2GPI to cardiolipin in the presence of anti-β2GPI antibodies. The note with it: 10 nM purified β2GPI, one-site inhibition fit, read-out: half-maximal inhibition of binding of purified β2GPI to cardiolipin. On the procedure: as §3, §4

A further assay concerns the target T6, domain V of β2GPI (Homo sapiens, UniProt P02749).
T6 sequence (P02749 263-345 limits assumed): T1 sequence (P02749 263-345)
The conditions noted are these: Lee et al., Structure 18:366-376, 2010; read-out: affinity of A1 for domain V of β2GPI; cited from earlier work.

In assay [6] the target is T7, β2GPI/anti-β2GPI antibody complexes (β2GPI in normal human serum) (Homo sapiens, UniProt P02749).
T7 construct: pooled normal human serum (Innovative Research); tissue Innovative Research; host or cells: pooled normal human serum
T7 sequence (P02749 20-345): T2 sequence (P02749 20-345)
The assay is described as follows: Inhibition of binding of β2GPI in human serum to cardiolipin in the presence of anti-β2GPI antibodies. The note with it: 0.04% human serum, read-out: half-maximal inhibition of binding of β2GPI in serum to cardiolipin. On the procedure: as §3, §4

The nature of assay [7]: Binding of purified β2GPI to cardiolipin-coated surface. More on the design: species or system human. The note with it: read-out: half-maximal binding of purified β2GPI to cardiolipin. On the procedure: as §1
(§5) For the binding studies, 50 μl of increasing concentrations of either β2GPI (Haematologic Technologies, Inc.), pooled normal human serum (Innovative Research), or the purified recombinant β2GPI-DV were applied to wells and incubated for 1 hour at room temperature. […] Then, the samples were applied to cardiolipin, incubated for 1 hour, washed, and bound β2GPI or β2GPI-DV was detected.

Assay [8] in a line: Binding of β2GPI in normal human serum to cardiolipin-coated surface. On the procedure:
as §1, §5

The nature of assay [9]: Binding of β2GPI-DV to cardiolipin-coated surface. The conditions noted are these: read-out: binding of β2GPI-DV to cardiolipin, one-site model fit. On the procedure:
as §1, §5

Setting [10] is: in the absence of anti-β2GPI antibodies.
[11] abbreviates: in the presence of anti-β2GPI antibodies.

Consider “A1: Monomeric first LA module, fragment of mouse ApoER2 (residues 12-47 of the mature protein)”, for which the IC50 was 188 ± 44 µM in assay [1]; 176 ± 37 µM in [2]; 204 ± 33 µM in assay [3]; 191 ± 34 µM in assay [5]; 218 ± 21 µM in assay [6]. In [4], the “inhibition of binding of purified β2GPI to cardiolipin” value is reported as “only weakly inhibited”. Further, the Kd with domain V of β2GPI is 1000 µM.

B1: A1-A1: Dimeric inhibitor: two A1 (LA) modules from ApoER2 connected by a flexible Gly-Ser-Ser-Gly linker, SEQ ID NO: 1 (protein)
chain: AECEEDQFRCRNERCIPLVWRCDEDNDCSDNSDEDDCGSSGCEEDQFRCRNERCIPLVWRCDEDNDCSDNSDEDDCEA
Take B1: the “inhibition of binding of purified β2GPI to cardiolipin” value in [4] is on record as “only weakly inhibited”.

B2: β2GPI: Beta2-glycoprotein I, in pooled normal human serum or purified from human plasma (Haematologic Technologies, Inc.) (protein)
chain: T2 sequence (P02749 20-345)
B2: the results for the EC50 in [7] (setting [10]) and in [7] (setting [11]) were 0.043 ± 0.004 µM and 0.0024 ± 0.0004 µM, respectively. The “half-maximal binding of β2GPI in serum to cardiolipin” value is on record as 0.40±0.05 % of serum in assay [8] (setting [10]) and 0.028±0.004 % of serum in [8] (setting [11]).

B3: β2GPI-DV: Recombinant isolated domain V of β2GPI (residues 244-326), with an N-terminal HA tag in the binding assays (protein)
chain: YPYDVPDYASCKVPVKKATVVYQGERVKIQEKFKNGMLHGDKVSFFCKNKEKKCSYTEDAQCIDGTIEVPKCFKEHSSLAFWKTDASDVKPC
For B3, the results for the EC50 in [9] (in the absence of anti-tag antibodies) and in assay [9] (in the presence of anti-tag antibodies) were 0.112 ± 0.021 µM and 0.019 ± 0.001 µM, respectively.

Values taken from patent US8993518B2, “Compositions and methods for treating antiphospholipid syndrome” (Beth Israel Deaconess Medical Center, Inc., priority 2010, dated 2015).
